The test in a line: Oxygen dissociation rates of DevS proteins, stopped flow. Format: binding, Mycobacterium tuberculosis.

B1: full-length Y171F DevS (protein, UniProt P9WGK3 1-578, looked up, variant Y171F)
chain: MTTGGLVDENDGAAMRPLRHTLSQLRLHELLVEVQDRVEQIVEGRDRLDGLVEAMLVVTAGLDLEATLRAIVHSATSLVDARYGAMEVHDRQHRVLHFVYEGIDEETVRRIGHLPKGLGVIGLLIEDPKPLRLDDVSAHPASIGFPPYHPPMRTFLGVPVRVRDESFGTLFLTDKTNGQPFSDDDEVLVQALAAAAGIAVANARLYQQAKARQSWIEATRDIATELLSGTEPATVFRLVAAEALKLTAADAALVAVPVDEDMPAADVGELLVIETVGSAVASIVGRTIPVAGAVLREVFVNGIPRRVDRVDLEGLDELADAGPALLLPLRARGTVAGVVVVLSQGGPGAFTDEQLEMMAAFADQAALAWQLATSQRRMRELDVLTDRDRIARDLHDHVIQRLFAIGLALQGAVPHERNPEVQQRLSDVVDDLQDVIQEIRTTIYDLHGASQGITRLRQRIDAAVAQFADSGLRTSVQFVGPLSVVDSALADQAEAVVREAVSNAVRHAKASTLTVRVKVDDDLCIEVTDNGRGLPDEFTGSGLTNLRQRAEQAGGEFTLASVPGASGTVLRWSAPLSQ
modifications: full-length
Turning to B1, the O2 koff is 3.85 ± 0.69 ^b s^−1.

The values are drawn from article PMC2756985 (Biochemistry, 2009).
